From patent publication US20240360245A1 (Daiichi Sankyo, published 2024)
Positions count from the first letter of the chain named.

Assays:
[1] = target: human GARP expressed on cells (GARP-transfected HEK-293T cells; endogenous on L428 cells and activated Treg) (human) (UniProt Q14392); test: flow cytometry on anti-CD3/anti-CD28 activated human PBMC, Alexa Fluor 647-labeled antibody against PE anti-Foxp3; the panel Antibody not-added prints 0.18
[2] = target: human GARP expressed on cells (GARP-transfected HEK-293T cells; endogenous on L428 cells and activated Treg) (human) (UniProt Q14392); test: flow cytometry on anti-CD3/anti-CD28 activated human PBMC, Alexa Fluor 647-labeled antibody against PE anti-Foxp3; the panel Antibody not-added prints 0.13
[3] = target: human GARP expressed on cells (GARP-transfected HEK-293T cells; endogenous on L428 cells and activated Treg) (human) (UniProt Q14392); test: flow cytometry on CD3/CD28 bead-activated human PBMC gated on CD4-positive cells, FITC-labeled anti-IgG secondary antibody against PE anti-Foxp3
[4] = target: T1, recombinant human GARP (R&D Systems, catalog number 6055-LR) (human, UniProt Q14392 20-627); test: ELISA on plate-coated human GARP (1 ug/mL), 50 nM antibody, HRP anti-human Fc, chemiluminescence
T1 construct: Bought soluble protein; In the phage panning and Fab screening it was in part biotinylated; also called antigen
T1 sequence: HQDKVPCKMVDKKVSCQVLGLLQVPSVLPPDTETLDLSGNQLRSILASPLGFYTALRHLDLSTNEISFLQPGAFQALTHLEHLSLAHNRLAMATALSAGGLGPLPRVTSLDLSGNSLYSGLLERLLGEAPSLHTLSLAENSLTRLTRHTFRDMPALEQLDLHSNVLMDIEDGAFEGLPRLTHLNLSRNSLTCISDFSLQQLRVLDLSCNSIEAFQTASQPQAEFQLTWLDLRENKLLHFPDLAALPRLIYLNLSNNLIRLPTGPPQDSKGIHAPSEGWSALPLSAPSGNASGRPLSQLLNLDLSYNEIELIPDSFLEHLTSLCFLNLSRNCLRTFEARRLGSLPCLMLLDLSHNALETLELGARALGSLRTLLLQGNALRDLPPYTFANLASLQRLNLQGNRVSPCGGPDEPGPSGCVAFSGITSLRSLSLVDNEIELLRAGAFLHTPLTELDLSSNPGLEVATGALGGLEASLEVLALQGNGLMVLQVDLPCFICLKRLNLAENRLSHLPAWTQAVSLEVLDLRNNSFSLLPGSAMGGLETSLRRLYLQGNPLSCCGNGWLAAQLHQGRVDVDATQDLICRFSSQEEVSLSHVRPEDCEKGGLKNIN
Protocol: The plate was washed with the ELISA buffer three times. […] On the other hand, 100 μL of HRP-labeled anti-mouse Fc antibody (R&D Systems), which had been 5000-fold diluted with PBS, was added to the wells treated with mouse anti-GARP antibody and mouse IgG. The plate was incubated at room temperature for 1 hour with mixing.

[5] = target: T1, recombinant human GARP (R&D Systems, …); test: SPR (Biacore T200), antibody captured on Protein A, GARP antigen as analyte, 1:1 fit
Protocol: The dissociation constant between each of the humanized anti-human GARP antibodies h151D-H1L1, h151D-H4L4 and h198D-H3L4 produced in Example 7)-10 and GARP was evaluated by using Biacore T200 (GE Healthcare Bioscience), according to a capture method, which comprises capturing the antibody as a ligand by the immobilized Protein A and then analyzing the dissociation constant using an antigen as an analyte. HBS-EP+ (manufactured by GE Healthcare Bioscience) was used as a running buffer, and a Protein A Sensor Chip (manufactured by GE Healthcare Bioscience) was used as a sensor chip.
(§1) The human chimeric antibody (1 μg/mL) was added onto the chip at a rate of 10 μL/min for 20 seconds, and a dilution series solution (8 to 128 nM) of the antigen was added at a flow rate of 30 μl/min for 120 seconds. Subsequently, the dissociation was monitored for 480 seconds. As a regeneration solution, Glycine 1.5 (manufactured by GE Healthcare Bioscience) was added at a flow rate of 20 μl/min for 30 seconds.
1:1 Fitting model was used in data analysis, and the association rate constant ka, the dissociation rate constant kd, and the dissociation constant (KD; KD=kd/ka) were calculated.

[6] = target: T2, human GARP expressed on cells (GARP-transfected HEK-293T cells; endogenous on L428 cells and activated Treg) (human, UniProt Q14392 20-662); test: flow cytometry on CD3/CD28 bead-activated human PBMC gated on CD4-positive cells, FITC-labeled anti-IgG secondary antibody against PE anti-Foxp3
T2 construct: The transfected cells carry a human GARP cDNA clone (Origene) in pcDNA3.1(+); also called hGARP; endogenously expressed GARP
T2 sequence: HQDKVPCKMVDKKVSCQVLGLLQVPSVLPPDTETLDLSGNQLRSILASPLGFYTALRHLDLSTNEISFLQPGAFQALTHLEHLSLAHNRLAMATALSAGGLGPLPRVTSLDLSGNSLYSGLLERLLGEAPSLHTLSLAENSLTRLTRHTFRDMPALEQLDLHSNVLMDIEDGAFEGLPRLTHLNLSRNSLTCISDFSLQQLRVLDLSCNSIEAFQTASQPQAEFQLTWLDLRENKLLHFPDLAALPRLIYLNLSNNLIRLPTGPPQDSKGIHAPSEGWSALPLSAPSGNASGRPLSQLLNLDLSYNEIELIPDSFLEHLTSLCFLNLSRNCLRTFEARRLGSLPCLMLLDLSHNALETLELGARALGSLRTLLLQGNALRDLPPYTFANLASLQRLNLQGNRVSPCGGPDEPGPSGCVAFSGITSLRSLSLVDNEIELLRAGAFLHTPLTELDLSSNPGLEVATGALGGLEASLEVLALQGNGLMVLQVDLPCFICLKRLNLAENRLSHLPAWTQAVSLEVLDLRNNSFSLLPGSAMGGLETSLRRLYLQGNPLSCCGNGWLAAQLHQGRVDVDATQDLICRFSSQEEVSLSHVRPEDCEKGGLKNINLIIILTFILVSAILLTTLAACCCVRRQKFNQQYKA

[7] = target: T1, recombinant human GARP (R&D Systems, …); test: SPR (Biacore T200), antibody captured on Protein A, recombinant human GARP as analyte, 1:1 fit
Protocol: The dissociation constant between the c151D or c198D produced in Example 6)-4 and human GARP was evaluated by using Biacore T200 (GE Healthcare Bioscience), according to a capture method, which comprises capturing the antibody as a ligand with the immobilized Protein A and then analyzing the dissociation constant using an antigen (recombinant human GARP: R&D Systems) as an analyte. HBS-EP+ (manufactured by GE Healthcare Bioscience) was used as a running buffer, and a Protein A Sensor Chip (manufactured by GE Healthcare Bioscience) was used as a sensor chip.
as §1, with “antigen was then added at” for “antigen was added at”
1:1 Fitting models were used in data analysis, and the association rate constant ka, the dissociation rate constant kd, and the dissociation constant (KD; KD=kd/ka) were calculated.

[8] = target: T1, recombinant human GARP (R&D Systems, …); test: ELISA, Fab in E. coli culture supernatant on coated or NeutrAvidin-captured biotinylated GARP
Protocol: 50 μL GARP, which had been diluted to 2 μg/mL with PBS (0.01 M phosphate buffered saline (pH 7.4) containing 0.138 M sodium chloride and 0.0027 M potassium chloride; Sigma-Aldrich), was added to each well of a 384-well Maxi-sorp plate (Black, Nunc), and it was then incubated overnight at 4° C. for coating the plate. Alternatively, 50 μL of NeutrAvidin (Life Technologies) which had been diluted to 1 μg/mL with PBS was added to such a 384-well Maxi-sorp plate for coating the plate (by incubating overnight at 4° C.). Thereafter, the plate was washed with an ELISA buffer (PBS (Sigma-Aldrich) supplemented with 0.05% Tween-20 (Bio-RAD)) three times, and biotinylated GARP was then added thereto (1 pmol/50 μL PBS/well), followed by incubation at room temperature for 1 hour with mixing. The plate was washed with ELISA buffer three times, was then blocked with Blocker Casein (Thermo Scientific), and was further washed with the ELISA buffer three times. Thereafter, a culture supernatant containing Fab produced by Escherichia coli was added, and the plate was then incubated at room temperature for 1 hour with mixing. […] Ten minutes later, chemiluminescence was measured using a plate reader (Envision 2104 Multilabel Reader, Perkin Elmer), and GARP-bound Fab was isolated.

Molecule: Alexa Fluor 647-labeled anti-GARP antibody (G14D9, eBioscience)
- percent of cells in the lower right quadrant (GARP-positive, Foxp3-negative) [1]: 0.81
- percent of cells in the upper right quadrant (GARP-positive, Foxp3-positive) [2]: 4.19

Molecule: human IgG (antibody)
- percent of CD4-positive cells in Q2 (GARP-positive, Foxp3-positive) [3]: 0.039%
- percent of CD4-positive cells in Q3 (GARP-positive, Foxp3-negative) [3]: 0.242%

B1: 110F antibody (antibody, human IgG1, lambda, V domains shown)
VH: EVQLLESGGGLVQPGGSLRLSCAASGFTFSSYGMHWVRQAPGKGLEWVAGISWNSAITVYADSVKGRFTISRDNSKNTLYLQMNSLRAEDTAVYYCAKDAGGRYSGSYYFDYWGQGTLVTVSS
VL: QSVLTQPPSASGTPGQRVTISCTGSSSNIGAGYDVHWYQQLPGTAPKLLIYGNSNRPSGVPDRFSGSKSGTSASLAISGLRSEDEADYYCQSYDRSLNWVFGGGTKLTVLG
- binding result [4]: binds

B2: humanized anti-human GARP antibody h151D-H1L1 (antibody, human IgG1, kappa, V domains shown)
VH: EVQLVESGGGLVQPGGSLRLSCAASGFTFSNYYMAWVRQAPGKGLEWVSSIGTVGGNTYYADSVKGRFTISRDDSKNTLYLQMNSLRAEDTAVYYCAREDYGGFPHWGQGTLVTVSS
VL: NIVMTQSPDSLAVSLGERATINCKASQNVGTNVDWYQQKPGQSPKLLIYGASNRYTGVPDRFSGSGSGTDFTLTISSLQAEDVAVYDCLQYKYNPYTFGQGTKVEIKR
notes: Produced in Potelligent CHOK1SV cells; also called MACA-1511a
- Kd [5]: 1.8 nM
- percent of CD4-positive cells in Q2 (GARP-positive, Foxp3-positive) [6]: 3.54%
- percent of CD4-positive cells in Q3 (GARP-positive, Foxp3-negative) [6]: 2.41%

B3: humanized anti-human GARP antibody h151D-H4L4 (antibody, human IgG1, kappa, V domains shown)
VH: B2 VH with S49A, A61R, N77S
VL: B2 VL with D9S, A12S, V13A, L15V, E17D, A19V, Q42K, A80P, V83F, V85T
notes: Produced in Potelligent CHOK1SV cells; also called MACA-1514a
- Kd [5]: 1.2 nM
- percent of CD4-positive cells in Q2 (GARP-positive, Foxp3-positive) [6]: 3.38%
- percent of CD4-positive cells in Q3 (GARP-positive, Foxp3-negative) [6]: 2.59%

B4: humanized anti-human GARP antibody h198D-H3L4 (antibody, human IgG1, kappa, V domains shown)
VH: EVQLVESGGGLVKPSQTLSLTCTVSGFSLTSFHVSWVRQPPGKGLEWIATISSGGGTYYNPSLKSRVTISRDTSKNQVSLKLSSVTAADTAVYYCARISGWGHYYVMDVWGQGTLVTVSS
VL: DIQMTQSPSSLSASVGDRVTITCQASEDIYSGLAWYQQKPGKSPKLLIYGAGSLQDGVPSRFSGSGSGTHYTLTISSLQPEDFATYFCQQGLKFPLTFGQGTKVEIKR
notes: Produced in Potelligent CHOK1SV cells; also called MACA-1983a
- Kd [5]: 0.088 nM
- percent of CD4-positive cells in Q2 (GARP-positive, Foxp3-positive) [6]: 3.47%
- percent of CD4-positive cells in Q3 (GARP-positive, Foxp3-negative) [6]: 3.25%

B5: human chimeric 151D antibody c151D (antibody, human IgG1, V domains shown)
VH: EVQLVESGGGLVQPGRSKKLSCSASGFTFSNYYMAWVRQAPTQGLEWVASIGTVGGNTYYRDSVKGRFTISRDDAKSTLYLQMDSLRSEDTATYYCAREDYGGFPHWGQGVMVTVSS
VL: NIVMTQSPTSMFISVGDRVTMNCKASQNVGTNVDWYQQKTGQSPKLLIYGASNRYTGVPDRFTGSGSGTDFTLTISNMQAEDLAVYDCLQYKYNPYTFGTGTKLELNR
- Kd [7]: 0.47 nM

B6: human chimeric 198D antibody c198D (antibody, human IgG1, V domains shown)
VH: QVQLRESGPGLVQPSQTLSLTCTVSGFSLTSFHVSWVRQPPEKGLEWIATISSGGGTYYNSALKSRLSISRDTSKSQVFLKMSTLQTEDTAMYFCARISGWGHYYVMDVWGQGASVTVSS
VL: DIQMTQSPASLSGSLGETVTIQCQASEDIYSGLAWYQQKPGKSPQLLIYGAGSLQDGVPSRFSGGGSGTHYSLKISSMQTEDEGVYFCQQGLKFPLTFGSGTKLEIKR
- Kd [7]: 0.17 nM

B7: 110F Fab (ELISA-positive clone from the n-CoDeR Fab phage library) (Fab, V domains shown)
VH: B1 VH
VL: B1 VL
notes: Fab produced in Escherichia coli and tested as culture supernatant
- binding result [8]: binds
